The values below come from the Immune Epitope Database (IEDB).

pKd: −log10 of the molar value.

For one experiment, the target named is HLA-A*01:01. In words: IEDB peptide-MHC binding, purified MHC/competitive/radioactivity; filed as Kd, often an IC50 or EC50 that approximates it; ≥ and ≤ were set here for values at or beyond the usual limits of such assays.
The next experiment has as its target HLA-A*23:01. The experiment is described as above.
A further experiment has as its target HLA-A*24:02. The description is as above.
The next experiment deals with HLA-A*26:01. The experiment is described as above.
The next experiment deals with HLA-A*29:02. Described as above.
The next experiment has as its target HLA-A*30:02. The experiment is described as above.
The target in the next experiment is HLA-B*44:03. Described as above.
The target in another experiment is HLA-A*32:01. Described as above.
Another experiment concerns the target HLA-B*40:01. The description is as above. To be noted: source organism: Dengue virus 2 Jamaica/1409/1983.
The target in experiment [1] is HLA-A*02:01. In words: IEDB peptide-MHC binding, purified MHC/direct/fluorescence; filed as Kd, often an IC50 or EC50 that approximates it; ≥ and ≤ were set here for values at or beyond the usual limits of such assays.
A further experiment deals with HLA-A*69:01. Described as above.
The target of a further experiment is HLA-B*44:02. Description: IEDB peptide-MHC binding, purified MHC/competitive/radioactivity; filed as Kd, often an IC50 or EC50 that approximates it; ≥ and ≤ were set here for values at or beyond the usual limits of such assays.
The next experiment deals with HLA-B*53:01. Described as above. To be noted: source organism: Dengue virus 1 Singapore/S275/1990.
The target in experiment [2] is HLA-A*02:01. In words: IEDB peptide-MHC binding, purified MHC/competitive/fluorescence; filed as Kd, often an IC50 or EC50 that approximates it; ≥ and ≤ were set here for values at or beyond the usual limits of such assays. To be noted: source organism: Vaccinia virus Copenhagen.
The mark [3] stands for this setting: source organism: SARS coronavirus Tor2.
The mark [4] stands for this setting: source organism: Dengue virus 3 Martinique/1243/1999.
[5] abbreviates: source organism: Dengue virus 4 Philippines/H241/1956.
The mark [6] stands for this setting: source organism: Marburg virus - Musoke, Kenya, 1980.
Where [7] appears, read: source organism: Triticum aestivum.
Setting [8] is: source organism: Dengue virus 1 Singapore/S275/1990.
Setting [9] is: source organism: Vaccinia virus WR.
The mark [10] stands for this setting: source organism: Entamoeba histolytica HM-1:IMSS.

For the sequence ELSPRWYFYY, the pKd with HLA-A*01:01 (setting [3]) is 7.04; with HLA-A*23:01 (setting [3]), 5.06; with HLA-A*24:02 (setting [3]), 5.03; with HLA-A*26:01 (setting [3]) it was 8.39; in the experiment with HLA-A*29:02 (setting [3]), 8.10; with HLA-A*30:02 (setting [3]), 7.22.

Turning to LSNFGAPSY, the negative-log Kd (pKd) with HLA-A*01:01 (setting [3]) was 7.09; in the experiment with HLA-A*23:01 (setting [3]) it was not above 4.11; with HLA-A*24:02 (setting [3]), not above 4.11; with HLA-A*26:01 (setting [3]), 5.34; with HLA-A*29:02 (setting [3]), 7.86; in the experiment with HLA-A*30:02 (setting [3]), 8.75.

Turning to GEIGAIALD, in the experiment with HLA-B*44:03 (setting [4]), the pKd is 6.04.

Turning to ETRAETWMSS, the negative-log Kd (pKd) is 6.30 in the experiment with HLA-A*26:01 (setting [5]) and not above 4.33 with HLA-A*32:01 (setting [5]).

Consider SEFQIYKKSG, for which the negative-log Kd (pKd) in the experiment with HLA-B*40:01 is 6.39; in the experiment with HLA-B*44:03 (source organism: Dengue virus 2 Jamaica/1409/1983) it was 5.43.

Consider QYGSFCTQL, for which the pKd is not above 4.11 in the experiment with HLA-A*01:01 (setting [3]); not above 4.12 with HLA-A*23:01 (setting [3]); not above 3.97 with HLA-A*24:02 (setting [3]); not above 4.11 in the experiment with HLA-A*26:01 (setting [3]); not above 4.10 with HLA-A*29:02 (setting [3]); not above 4.03 with HLA-A*30:02 (setting [3]).

On to MLAKYDHLV, for which the pKd with HLA-A*02:01 [1] (setting [6]) is 7.57; with HLA-A*69:01 (setting [6]), 6.98.

On to RQVEKVETW, for which the pKd in the experiment with HLA-A*32:01 (setting [4]) is 7.10.

With GTGPEASLPY, the pKd in the experiment with HLA-A*01:01 (setting [3]) is 6.46; with HLA-A*23:01 (setting [3]), not above 4.15; with HLA-A*24:02 (setting [3]), not above 4.15; with HLA-A*26:01 (setting [3]), 6.39; in the experiment with HLA-A*29:02 (setting [3]), 6.93; with HLA-A*30:02 (setting [3]), 6.04.

For the sequence KWDLLKYDF, the negative logarithm of the Kd (pKd) with HLA-A*01:01 (setting [3]) is not above 4.11; in the experiment with HLA-A*23:01 (setting [3]), 4.90; in the experiment with HLA-A*24:02 (setting [3]), not above 4.55; in the experiment with HLA-A*26:01 (setting [3]), not above 4.11; with HLA-A*29:02 (setting [3]), 8.31; with HLA-A*30:02 (setting [3]), 7.05.

For MEVEIWTRE, the pKd in the experiment with HLA-B*44:03 (setting [5]) was 5.97.

Consider QYSQPQQPI, for which the pKd is not above 4.25 in the experiment with HLA-A*01:01 (setting [7]); 4.79 with HLA-A*23:01 (setting [7]); 5.58 in the experiment with HLA-A*24:02 (setting [7]); not above 4.11 with HLA-A*26:01 (setting [7]); 6.39 with HLA-A*29:02 (setting [7]); 7.03 with HLA-A*30:02 (setting [7]).

As to TDFQSHQLW, the negative logarithm of the Kd (pKd) in the experiment with HLA-B*44:02 (setting [8]) is 7.43.

Turning to MEDKTPVTTW, the pKd is 6.94 in the experiment with HLA-B*44:02 (setting [4]) and 6.74 in the experiment with HLA-B*44:03 (setting [4]).

In the case of HSVGFDYVY, the negative logarithm of the Kd (pKd) with HLA-A*01:01 (setting [3]) was 4.83; with HLA-A*23:01 (setting [3]), not above 4.11; in the experiment with HLA-A*24:02 (setting [3]), not above 4.11; in the experiment with HLA-A*26:01 (setting [3]) it was 6.23; with HLA-A*29:02 (setting [3]), 6.80; in the experiment with HLA-A*30:02 (setting [3]), 7.92.

On to LTDFQSHQLW, for which the pKd with HLA-A*01:01 (setting [8]) is 5.43; in the experiment with HLA-B*53:01, 5.80.

In the experiment with HLA-A*02:01 [2], LLNNSLGSV had a negative logarithm of the Kd (pKd) of 8.44.

With HIYFVSLLL, in the experiment with HLA-A*32:01 (setting [9]), the pKd was 7.82.

Turning to KLYDSVYLT, the results for the pKd with HLA-A*02:01 [1] (setting [10]) and in the experiment with HLA-A*69:01 (setting [10]) were 8.12 and not above 4.70, respectively.

EIEPKLDGYY: the pKd is 7.26 with HLA-A*01:01 (setting [3]); not above 4.15 with HLA-A*23:01 (setting [3]); not above 4.15 with HLA-A*24:02 (setting [3]); 6.79 in the experiment with HLA-A*26:01 (setting [3]); 5.13 in the experiment with HLA-A*29:02 (setting [3]); 6.27 in the experiment with HLA-A*30:02 (setting [3]).

As for KEIGRMLNIL, in the experiment with HLA-B*40:01, the pKd is 8.32.

With ITDVIVQSI, in the experiment with HLA-A*32:01 (setting [9]), the pKd is 6.59.

As to KTTWLPVLL, the pKd with HLA-A*32:01 (source organism: Dengue virus 1 Brazil/97-11/1997) is 6.83.
